B1: GpH7-A5/GpH7-B3 variant Y300_04F/GpL16-k0 (antibody, human IgG1, kappa)
heavy 1: not shown
heavy 2: not shown
light: DIVMTQSPLSLPVTPGEPASISCQASESLVHSNRNTYLHWYLQKPGQSPQLLIYKVSNRFSGVPDRFSGSGSGTDFTLKISRVEAEDVGVYYCSQNTHVPPTFGQGTKVEIERTVAAPSVFIFPPSDEQLKSGTASVVCLLNNFYPREAKVQWKVDNALQSGNSQESVTEQDSKDSTYSLSSTLTLSKADYEKHKVYACEVTHQGLSSPVTKSFNRGEC
notes: heterodimerized IgG1, mutation in one H chain only; also called He Ab
B2: GpH7-A5/GpH7-B3 variant S324_04F/GpL16-k0 (antibody, human IgG1, kappa)
heavy 1: not shown
heavy 2: not shown
light: B1 light
notes: as for B1
B3: GpH7-A5/GpH7-B3 variant S337_03V/GpL16-k0 (antibody, human IgG1, kappa)
heavy 1: not shown
heavy 2: not shown
light: B1 light
notes: as for B1
B4: GpH7-A5/GpH7-B3 variant S337_11K/GpL16-k0 (antibody, human IgG1, kappa)
heavy 1: not shown
heavy 2: not shown
light: B1 light
notes: as for B1
B5: GpH7-A5/GpH7-B3 variant Y296_06M/GpL16-k0 (antibody, human IgG1, kappa)
heavy 1: not shown
heavy 2: not shown
light: B1 light
notes: as for B1
B6: GpH7-A5/GpH7-B3 variant T335_12R/GpL16-k0 (antibody, human IgG1, kappa)
heavy 1: not shown
heavy 2: not shown
light: B1 light
notes: as for B1
B7: GpH7-A5/GpH7-B3 variant T335_01G/GpL16-k0 (antibody, human IgG1, kappa)
heavy 1: not shown
heavy 2: not shown
light: B1 light
notes: as for B1
B8: GpH7-A5/GpH7-B3 variant Y296_10E/GpL16-k0 (antibody, human IgG1, kappa)
heavy 1: not shown
heavy 2: not shown
light: B1 light
notes: as for B1
B9: GpH7-A5/GpH7-B3 variant S337_06M/GpL16-k0 (antibody, human IgG1, kappa)
heavy 1: not shown
heavy 2: not shown
light: B1 light
notes: as for B1
B10: GpH7-A5/GpH7-B3 variant Y296_07I/GpL16-k0 (antibody, human IgG1, kappa)
heavy 1: not shown
heavy 2: not shown
light: B1 light
notes: as for B1
B11: GpH7-A5/GpH7-B3 variant Y296_04F/GpL16-k0 (antibody, human IgG1, kappa)
heavy 1: not shown
heavy 2: not shown
light: B1 light
notes: as for B1
B12: GpH7-A5/GpH7-B3 variant A327_09D/GpL16-k0 (antibody, human IgG1, kappa)
heavy 1: not shown
heavy 2: not shown
light: B1 light
notes: mutation in the GpH7-B3 chain only; also called He Ab
B13: GpH7-A5/GpH7-B3 variant A327_10E/GpL16-k0 (antibody, human IgG1, kappa)
heavy 1: not shown
heavy 2: not shown
light: B1 light
notes: as for B12
B14: GpH7-A5/GpH7-B3 variant A327_07I/GpL16-k0 (antibody, human IgG1, kappa)
heavy 1: not shown
heavy 2: not shown
light: B1 light
notes: as for B12
B15: GpH7-A5/GpH7-B3 variant A330_01G/GpL16-k0 (antibody, human IgG1, kappa)
heavy 1: not shown
heavy 2: not shown
light: B1 light
notes: as for B12
B16: GpH7-A5/GpH7-B3 variant I332_04F/GpL16-k0 (antibody, human IgG1, kappa)
heavy 1: not shown
heavy 2: not shown
light: B1 light
notes: as for B12
B17: GpH7-A5/GpH7-B3 variant K334_12R/GpL16-k0 (antibody, human IgG1, kappa)
heavy 1: not shown
heavy 2: not shown
light: B1 light
notes: as for B12
B18: GpH7-A5/GpH7-B3 variant A327_18N/GpL16-k0 (antibody, human IgG1, kappa)
heavy 1: not shown
heavy 2: not shown
light: B1 light
notes: as for B12

One test concerns the target T1, FcγRIIa R (FcγRIIa allotype with Arg at position 131), extracellular domain with C-terminal His tag (human, UniProt P12318 34-217).
T1 construct: extracellular domain; made in FreeStyle293 cells; analyte in the Biacore assay; also called FcγRIIa type R; 2aR
T1 sequence (looked up): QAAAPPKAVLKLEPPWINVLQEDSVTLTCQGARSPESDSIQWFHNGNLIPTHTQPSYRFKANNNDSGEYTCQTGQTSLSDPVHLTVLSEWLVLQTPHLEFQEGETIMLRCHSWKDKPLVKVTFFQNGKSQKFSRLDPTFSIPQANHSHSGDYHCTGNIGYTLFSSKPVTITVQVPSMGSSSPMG
The test is described as follows: SPR (Biacore), antibody captured, FcγR analyte; vs GpH7-A5/GpH7-B3/GpL16-k0 = 100. The protocol:
(§1) The heterodimerized antibodies He Abs in which one of the H chains was introduced with an alteration were assayed for their binding activities to each activating FcγR and inhibitory FcγR according to the method described in Example 4. […] The activating FcγRs in FIGS. 26, 27, 28, and 29 are FcγRIa, FcγRIIa (R), FcγRIIa (H), and FcγRIIIa, respectively.
(§2) Analysis of interaction between objective antibody and the FcγR was carried out using Biacore T100 (GE Healthcare). HBS-EP+ (GE Healthcare) was used as the running buffer, and the measurement temperature was set to 25° C. Chips produced by immobilizing the antigen peptide by the amine coupling method to a Series S Sencor Chip CM5 (GE Healthcare), or alternatively, chips produced by allowing preliminarily biotinylated antigen peptides to interact with and immobilize onto a Series S Sensor Chip SA (certified) (GE Healthcare) were used. Antibodies of interest were captured onto an antigen peptide-immobilized chip, and allowed to interact to each FcγR diluted with running buffer. To regenerate and repeatedly use the chip, the antibodies captured on the chip were washed off by reacting 10 mM glycine-HCl, pH 1.5.
In general terms: In SPR one partner is held on a chip, and binding of the other changes the refractive index at the surface.
For the molecule B1, the He/Con_2aR is 108 relative (HeCon Ab = 100).

In the case of B2, the He/Con_2aR is 104 relative (HeCon Ab = 100).

Regarding B3, the He/Con_2aR was 106 relative (HeCon Ab = 100).

Take B4: the He/Con_2aR is 103 relative (HeCon Ab = 100).

For B5, the He/Con_2aR is 101 relative (HeCon Ab = 100).

For the molecule B6, the He/Con_2aR is 100 relative (HeCon Ab = 100).

Consider B7, for which the He/Con_2aR was 104 relative (HeCon Ab = 100).

On to B8, for which the He/Con_2aR is 103 relative (HeCon Ab = 100).

On to B9, for which the He/Con_2aR was 105 relative (HeCon Ab = 100).

B10: the He/Con_2aR was 101 relative (HeCon Ab = 100).

Consider B11, for which the He/Con_2aR was 109 relative (HeCon Ab = 100).

Another test has as its target T2, FcγRIIb, extracellular domain with C-terminal His tag (human, UniProt P31994 43-217).
T2 construct: extracellular domain; made in FreeStyle293 cells; analyte in the Biacore assay; also called 2b; FcgRIIb
T2 sequence (looked up): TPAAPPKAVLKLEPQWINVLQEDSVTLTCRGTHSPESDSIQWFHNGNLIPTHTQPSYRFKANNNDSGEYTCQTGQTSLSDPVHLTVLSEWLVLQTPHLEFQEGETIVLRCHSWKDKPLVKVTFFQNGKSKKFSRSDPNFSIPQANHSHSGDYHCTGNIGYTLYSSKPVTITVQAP
The test is described as above. On the procedure:
as §1, §2
Turning to B1, the He/Con_2b is 94.8 relative (HeCon Ab = 100).

In the case of B2, the He/Con_2b is 89.1 relative (HeCon Ab = 100).

For B3, the He/Con_2b is 98.9 relative (HeCon Ab = 100).

Turning to B4, the He/Con_2b was 94.3 relative (HeCon Ab = 100).

With B5, the He/Con_2b is 87.8 relative (HeCon Ab = 100).

Take B6: the He/Con_2b is 91.9 relative (HeCon Ab = 100).

Consider B7, for which the He/Con_2b is 96.7 relative (HeCon Ab = 100).

On to B8, for which the He/Con_2b is 98 relative (HeCon Ab = 100).

As for B9, the He/Con_2b is 96.7 relative (HeCon Ab = 100).

On to B10, for which the He/Con_2b was 84.3 relative (HeCon Ab = 100).

Take B11: the He/Con_2b is 99.2 relative (HeCon Ab = 100).

The next test deals with T3, FcγRIIIa (human, UniProt P08637 17-208).
T3 construct: extracellular domain; also called FcgRIIIa; 3a
T3 sequence (P08637 17-208): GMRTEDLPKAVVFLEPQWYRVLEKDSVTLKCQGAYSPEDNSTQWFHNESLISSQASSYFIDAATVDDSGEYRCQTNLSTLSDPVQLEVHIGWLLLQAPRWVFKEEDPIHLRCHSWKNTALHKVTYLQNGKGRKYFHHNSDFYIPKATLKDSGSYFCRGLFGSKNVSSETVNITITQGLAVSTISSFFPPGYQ
The test is described as follows: SPR (Biacore), relative binding.
For the molecule B12, the He/Con_3a is 83.7 % of GpH7-A5/GpH7-B3/GpL16-k0.

For B13, the He/Con_3a is 68.6 % of GpH7-A5/GpH7-B3/GpL16-k0.

Regarding B14, the He/Con_3a is 42.4 % of GpH7-A5/GpH7-B3/GpL16-k0.

As to B15, the He/Con_3a was 89.1 % of GpH7-A5/GpH7-B3/GpL16-k0.

On to B16, for which the He/Con_3a is 97.6 % of GpH7-A5/GpH7-B3/GpL16-k0.

Take B17: the He/Con_3a was 90.8 % of GpH7-A5/GpH7-B3/GpL16-k0.

B18: the He/Con_3a is 61.1 % of GpH7-A5/GpH7-B3/GpL16-k0.

The target in the next test is T4, FcγRIIb (human, UniProt P31994 43-217).
T4 construct: extracellular domain; also called FcgRIIb; 2b
T4 sequence (looked up): T2 sequence (looked up)
The test is described as follows: SPR (Biacore), relative binding.
For B12, the He/Con_2b is 172 % of GpH7-A5/GpH7-B3/GpL16-k0.

B13: the He/Con_2b was 140 % of GpH7-A5/GpH7-B3/GpL16-k0.

Regarding B14, the He/Con_2b was 127 % of GpH7-A5/GpH7-B3/GpL16-k0.

B15: the He/Con_2b was 104 % of GpH7-A5/GpH7-B3/GpL16-k0.

As to B16, the He/Con_2b was 104 % of GpH7-A5/GpH7-B3/GpL16-k0.

B17: the He/Con_2b was 111 % of GpH7-A5/GpH7-B3/GpL16-k0.

B18: the He/Con_2b was 113 % of GpH7-A5/GpH7-B3/GpL16-k0.

Source of the values: US20150344570A1 (published 2015).
